Source: patent US20200392228A1 (PANDION OPERATIONS, published 2020)
Like-named read-outs stand apart in the source and are kept apart here.

T1: mouse MAdCAM protein (mouse, UniProt Q61826 22-365, limits assumed)
T1 construct: also called recombinant mouse MAdCAM-1; mMAdCAM-1
T1 sequence (looked up): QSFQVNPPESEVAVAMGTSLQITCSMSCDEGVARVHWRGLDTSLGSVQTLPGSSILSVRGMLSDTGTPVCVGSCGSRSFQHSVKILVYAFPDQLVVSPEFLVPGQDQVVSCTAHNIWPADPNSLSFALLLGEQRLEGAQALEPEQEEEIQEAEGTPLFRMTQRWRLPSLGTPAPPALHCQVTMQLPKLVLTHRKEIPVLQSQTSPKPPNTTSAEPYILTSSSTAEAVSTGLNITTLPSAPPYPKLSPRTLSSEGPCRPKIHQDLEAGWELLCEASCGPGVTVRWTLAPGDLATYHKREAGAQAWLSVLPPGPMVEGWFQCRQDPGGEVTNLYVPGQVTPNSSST

T2: mouse MAdCAM expressed on cells (mouse, UniProt Q61826 22-405)
T2 construct: whole, on cells
T2 sequence (looked up): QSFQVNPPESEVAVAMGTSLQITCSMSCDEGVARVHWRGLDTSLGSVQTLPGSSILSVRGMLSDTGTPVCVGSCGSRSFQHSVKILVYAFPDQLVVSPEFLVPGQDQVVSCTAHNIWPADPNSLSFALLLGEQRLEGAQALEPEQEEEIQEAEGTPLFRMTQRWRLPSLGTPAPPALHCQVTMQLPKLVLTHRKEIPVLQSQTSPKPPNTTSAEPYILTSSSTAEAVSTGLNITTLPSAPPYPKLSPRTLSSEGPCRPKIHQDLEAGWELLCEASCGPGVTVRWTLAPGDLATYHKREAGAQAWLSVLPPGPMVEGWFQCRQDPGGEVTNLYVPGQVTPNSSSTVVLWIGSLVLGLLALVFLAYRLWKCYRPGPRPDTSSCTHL

T3: human MAdCAM expressed on cells (human, UniProt Q13477 19-382)
T3 construct: whole, on cells; also called MADCAM1
T3 sequence (looked up): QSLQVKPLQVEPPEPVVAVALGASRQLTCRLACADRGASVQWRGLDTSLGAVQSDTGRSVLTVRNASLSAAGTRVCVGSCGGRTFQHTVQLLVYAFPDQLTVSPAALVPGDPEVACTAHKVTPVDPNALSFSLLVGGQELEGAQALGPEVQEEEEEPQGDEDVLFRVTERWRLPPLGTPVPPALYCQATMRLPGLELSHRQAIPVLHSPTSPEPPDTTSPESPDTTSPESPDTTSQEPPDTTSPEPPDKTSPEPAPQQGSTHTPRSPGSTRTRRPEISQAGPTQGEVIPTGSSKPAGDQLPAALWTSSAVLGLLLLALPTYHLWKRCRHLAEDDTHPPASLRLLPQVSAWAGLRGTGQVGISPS

T4: human MAdCAM protein (human, UniProt Q13477 19-317)
T4 construct: used for Octet, SPR, ELISA and plate capture; construct not described; also called recombinant human MAdCAM; soluble monomeric human MAdCAM
T4 sequence (looked up): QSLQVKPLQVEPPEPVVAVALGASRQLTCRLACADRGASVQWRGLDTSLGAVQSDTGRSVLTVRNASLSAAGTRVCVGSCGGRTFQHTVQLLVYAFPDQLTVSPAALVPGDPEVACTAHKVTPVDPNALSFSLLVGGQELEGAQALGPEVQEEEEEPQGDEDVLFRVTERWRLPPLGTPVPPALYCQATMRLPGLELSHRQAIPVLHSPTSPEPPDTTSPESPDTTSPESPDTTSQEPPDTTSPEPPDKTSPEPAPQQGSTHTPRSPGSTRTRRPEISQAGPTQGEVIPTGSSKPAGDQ


Columns and labels:
mouse MAdCAM protein = target: T1, mouse MAdCAM protein; assay: Octet
[1] = target: T2, mouse MAdCAM expressed on cells; assay: cell binding
[2] = target: T3, human MAdCAM expressed on cells; assay: cell binding
human MAdCAM protein [3] = target: T4, human MAdCAM protein; assay: Octet
human MAdCAM protein [4] = target: T4, human MAdCAM protein; assay: Octet; remark: listed apart in the source
[5] = target: T3, human MAdCAM expressed on cells; assay: cell binding; remark: listed apart in the source
[6] = target: T2, mouse MAdCAM expressed on cells; assay: cell binding; remark: listed apart in the source

Row | binding result (mouse MAdCAM protein) | binding result [1] | binding result [2] | binding result (human MAdCAM protein [3]) | binding result (human MAdCAM protein [4]) | binding result [5] | binding result [6] | Binder
1 | no binding | no binding | – | – | – | – | – | MAdCAM antibody Clone ID 14 of Table 7 (IgG) (antibody, V domains shown, IgG format) VH: QVQLVQSGAEVKKPGSSVKVSCKASGYTFTNYYMHWVRQAPGQGLEWMGGIIPIVDGVKYAQKFQGRVTITADESTSTAYMELSSLRSEDTAVYYCAKGQFTGNYYYGMDYWGQGTLVTVSS VL: DIQMTQSPSSLSASVGDRVTITCQANQDISNYLNWYQQKPGKAPKLLIYRASKLEAGVPSRFSGSGSGTDFTLTISSLQPEDFATYYCQQSSEIPYSFGQGTKVEIK
2 | no binding | no binding | – | – | – | – | – | MAdCAM antibody Clone ID 28 of Table 7 (IgG) (antibody, V domains shown, IgG format) VH: EVQLLESGGGLVQPGGSLRLSCAASGFTFSSYAMSWVRQAPGKGLEWVSYISSSSTYTNYADSVKGRFTISRDNSKNTLYLQMNSLRAEDTAVYYCARANSSSWYDWYFDLWGQGTLVTVSS VL: not shown
3 | no binding | no binding | – | – | – | – | – | MAdCAM antibody Clone ID 29 of Table 7 (IgG) (antibody, V domains shown, IgG format) VH: EVQLLESGGGLVQPGGSLRLSCAASGFTFSSYQMSWVRQAPGKGLEWVSYISSSSTYTNYADSVKGRFTISRDNSKNTLYLQMNSLRAEDTAVYYCARANSSSWYDWYFDLWGQGTLVTVSS VL: not shown
4 | no binding | no binding | binds | – | – | – | – | MAdCAM antibody Clone ID 24 of Table 7 (IgG) (antibody, V domains shown, IgG format) VH: EVQLVESGGGLVKPGGSLRLSCAASGFTFSSYWMSWVRQAPGKGLEWVSRISSDGRITTYAAPVKGRFTISRDDSKNTLYLQMNSLKTEDTAVYYCARGTSYCTGGVCDIDYWGQGTLVTVSS VL: DIQMTQSPSSLSASVGDRVTITCRASQSIGRNLNWYQQKPGKAPKLLIYSASNLQSGVPSRFSGSGSGTDFTLTISSLQPEDFATYYCQQSYSIPLTFGPGTKVDIK
5 | – | binds | binds | binds | – | – | – | MAdCAM antibody Clone ID 30 of Table 7 (IgG) (antibody, V domains shown, IgG format) VH: EVQLLESGGGLVQPGGSLRLSCAASGFTFSSYAMHWVRQAPGKGLEWVSGISGSGGSAYYADSVKGRFTISRDNSKNTLYLQMNSLRAEDTAVYYCATSQAPVDYYYYGMDVWGQGTTVTVSS VL: DIQMTQSPSSLSASVGDRVTITCRASQSISSWLAWYQQKPGKAPKLLIYAASNLQRGVPSRFSGSGSGTDFTLTISSLQPEDFATYYCQQSYSIPITFGQGTKVEIK
6 | – | – | – | – | binds | binds | binds | MAdCAM antibody Clone ID 60 of Table 6 (scFv) (scFv) scFv: EVQLLESGGGLVQPGGSLRLSCAASGFTFDDYTMHWVRQAPGKGLEWVSDISGSGGSTYYADSVKGRFTISRDNSKNTLYLQMNSLRAEDTAVYYCAKDVVVAGTPLHFDYWGQGTLVTVSSGGGGSGGGGSGGGGSGGGGSDIQMTQSPSSLSASVGDRVTITCQASQDISNYLNWYQQKPGKAPKLLIYAASYLQSGVPSRFSGSGSGTDFTLTISSLQPEDFATYYCQQAHNYPITFGQGTRLEIK
7 | – | – | – | – | binds | binds | binds | MAdCAM antibody Clone ID 61 of Table 6 (scFv) (scFv) scFv: EVQLLESGGGLVQPGGSLRLSCAASEFTFSNAWMSWVRQAPGKGLEWVASISSTSAYIDYADSVKGRFTISRDNSKNTLYLQMNSLRAEDTAVYYCAREVVGATTFDYWGQGTLVTVSSGGGGSGGGGSGGGGSGGGGSDIQMTQSPSSLSASVGDRVTITCRASQSISTWLAWYQQKPGKAPKLLIYAASSLQSGVPSRFSGSGSGTDFTLTISSLQPEDFATYYCQQANAFPPTFGQGTRLEIK
8 | – | binds | binds | binds | – | – | – | MAdCAM antibody Clone ID 78 of Table 7 (IgG) (antibody, V domains shown, IgG format) VH: QVQLVQSGAEVKKPGSSVKVSCKASGGTFSSYAISWVRQAPGQGLEWMGWMEPHTGNTRYAQKFQGRVTITADESTSTAYMELSSLRSEDTAVYYCAKGGFSWFDPWGQGTLVTVSS VL: not shown
9 | – | – | – | – | binds | binds | binds | MAdCAM antibody Clone ID 66 of Table 6 (scFv) (scFv) scFv: EVQLLESGGGLVQPGGSLRLSCAASGFTFSSYWMHWVRQAPGKGLEWVAAISYDGKYKDYEDSVKGRFTISRDNSKNTLYLQMNSLRAEDTAVYYCARENKQWLASFDYWGQGTLVTVSSGGGGSGGGGSGGGGSGGGGSDIQMTQSPSSLSASVGDRVTITCQASQDISNFVNWYQQKPGKAPKLLIYAANLRSGVPSRFSGSGSGTDFTLTISSLQPEDFATYYCQQANSFPVTFGPGTKVDIK
10 | – | binds | binds | binds | – | – | – | MAdCAM antibody Clone ID 36 of Table 7 (IgG) (antibody, V domains shown, IgG format) VH: EVQLLESGGGLVQPGGSLRLSCAASGFTFDDYALHWVRQAPGKGLEWVSAISGDGRSTTYADSVKGRFTISRDNSKNTLYLQMNSLRAEDTAVYYCARDGTVNGATGWFDPWGQGTLVTVSS VL: not shown
11 | – | – | – | – | binds | binds | binds | MAdCAM antibody Clone ID 65 of Table 6 (scFv) (scFv) scFv: QVQLVQSGAEVKKPGASVKVSCKASGYTFTRHWIHWVRQAPGQGLEWMGWINVKTGGAGYAQKFQGRVTMTRDTSTSTVYMELSSLRSEDTAVYYCARESSGWYGTDVWGQGTTVTVSSGGGGSGGGGSGGGGSGGGGSDIQMTQSPSSLSASVGDRATITCRASQSISNYLAWYQQKPGKAPKLLIYAASSLQSGVPSRFSGSGSGTDFTLTISSLQPEDFATYYCQQSNSFPLTFGGGTKVEIK
12 | – | – | – | – | binds | binds | binds | MAdCAM antibody Clone ID 64 of Table 6 (scFv) (scFv) scFv: EVQLLESGGGLVKPGGSLRLSCAASGFAFSSHWMHWVRQAPGKGLEWVAGTSGSGESRDYADFVKGRFTISRDDSKNTLYLQMNSLKTEDTAVYYCARETYYYYYMDVWGKGTTVTVSSGGGGSGGGGSGGGGSGGGGSDIQMTQSPSSLSASVGDRVTITCRASQGISNYLAWYQQKPGKAPKLLIYDAANLEGGVPSRFSGSGSGTDFTLTISSLQPEDFATYYCQQSDIFPPTFGQGTKVEIK
13 | no binding | no binding | – | – | – | – | – | MAdCAM antibody Clone ID 74 of Table 7 (IgG) (antibody, V domains shown, IgG format) VH: QVQLVQSGAEVKKPGASVKVSCKASGYTFTGYYMHWVRQAPGQGLEWMGIINPSGGNTKYAQKFQGRVTMTRDTSTSTVYMELSSLRSEDTAVYYCTTADYYYYMDVWGKGTTVTVSS VL: DIQMTQSPSSLSASVGDRVTITCRASQGISNYLAWYQQKPGKAPKLLIYAASSLQSGVPSRFSGSGSGTDFTLTISSLQPEDFATYYCQQYYSNADFGQGTKVEIK
14 | no binding | no binding | – | – | – | – | – | MAdCAM antibody Clone ID 65 of Table 7 (IgG) (antibody, V domains shown, IgG format) VH: QVQLVQSGAEVKKPGASVKVSCKASGYTFTSYDINWVRQAPGQGLEWMGWMNPNSGNTGYAQKFQGRVTMTRDTSTSTVYMELSSLRSEDTAVYYCAKDSDYSNLLWDYWGQGTLVTVSS VL: DIQMTQSPSSLSASVGDRVTITCRASQDITNDLGWYQQKPGKAPKLLIYQASSLESGVPSRFSGSGSGTDFTLTISSLQPEDFATYYCQQSYTIPLTFGQGTKVEIK
15 | – | no binding | binds | binds | – | – | – | MAdCAM antibody Clone ID 58 of Table 7 (IgG) (antibody, V domains shown, IgG format) VH: EVQLLESGGGLVQPGGSLRLSCAASGFSVSSNYMSWVRQAPGKGLEWVAGISYDGSSKPYADSVKGRFTISRDNSKNTLYLQMNSLRAEDTAVYYCARSRGIAARPLQHWGQGTLVTVSS VL: not shown
